Data on one substance can be found in patent publication US20080003617A1.

The test has as its target A1 domain of von Willebrandt factor (vWf), His-tagged A1 antigen (human) (UniProt P04275). Kind of test: flow cytometry, yeast-displayed scFv with His-tagged A1 and Alexa-488 anti-His tag. On the technique in general: In flow cytometry, cells or beads pass a laser one at a time.

For the substance “scFv of the murine NMC-4 antibody, displayed on yeast (pYD-NMC4-scFv in EBY100) (from UniProt P32781 19-87)”, the percent of cells positive for A1 binding is 50 to 70%.
